Data on 31 molecules can be found in patent US20230137032A1 (GlaxoSmithKline, published 2023).

Changes are numbered by the printed parent chain.

Assay [1] addresses T1, recombinant cyno BCMA, in house material (cyno, UniProt A0A2K5UD97 4-52).
T1 construct: also called Cyno in house BCMA
Put plainly: Biacore T100, antibody captured on Protein A, 37C.

The target in assay [2] is T2, recombinant human BCMA, commercial (US Biological, B0410) (human, UniProt Q02223 5-54, limits assumed).
T2 construct: also called commercial human BCMA; Human commercial BCMA
T2 chain (looked up): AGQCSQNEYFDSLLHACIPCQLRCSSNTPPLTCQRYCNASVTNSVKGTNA
Put plainly: Biacore T100, antibody captured on Protein A, 37C.

The target in assay [3] is T1, recombinant cyno BCMA, in house material. Put plainly: ProteOn SPR run 1, antibody captured on Protein A, 25C.
In assay [4] the target is T3, recombinant human BCMA, in house material (human, UniProt Q02223 4-53, limits assumed).
T3 construct: also called Human in house BCMA; In house human BCMA
The assay is described as above.

In assay [5] the target is T1, recombinant cyno BCMA, in house material. Kind of assay: ProteOn SPR run 2, antibody captured on Protein A, 25C.

T3 sequence (Q02223 4-53 limits assumed): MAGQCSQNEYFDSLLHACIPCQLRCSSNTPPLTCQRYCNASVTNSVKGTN
T1 sequence (A0A2K5UD97 entry or part of it): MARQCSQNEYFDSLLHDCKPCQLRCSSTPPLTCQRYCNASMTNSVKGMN

B1: CA8 humanised J7M1 (antibody, human IgG1, kappa, V domains shown)
VH: QVQLVQSGAEVKKPGSSVKVSCKASGYTFTNYWMHWVRQAPGQGLEWMGATYRGHSDTYYNQKFKGRVTITADKSTSTAYMELSSLRSEDTAVYYCARGAIYDGYDVLDNWGQGTLVTVSS
VL: DIQMTQSPSSLSASVGDRVTITCSASQDISNYLNWYQQKPGKAPKLLIYYTSNLHSGVPSRFSGSGSGTDYTLTISSLQPEDFATYYCQQYRKLPWTFGQGTKLEIKR
notes: Humanised CA8, heavy chain J7 with light chain M1, human IgG1 kappa; also called CA8 J7M1
Consider B1, for which the Kd (in general, the equilibrium constant for the complex coming apart) in assay [1] turned out to be 1.06 nM; in assay [2], 0.056 nM.

B2: S307118G03 humanised H3L1 (antibody, human IgG1, kappa, V domains shown)
VH: QVQLVQSGAEVKKPGSSVKVSCKASGYTFTDYYMKWVRQAPGQGLEWIGEIYPNNGGITYNQKFKGRATLTVDKSTSTAYMELSSLRSEDTAVYYCANGYEFVYWGQGTLVTVSS
VL: B1 VL with D28G, N53S, R92S
notes: Humanised, human IgG1 kappa
Turning to B2, the binding result in assay [3] is on record as “no binding”. Moreover, the Kd in assay [4] was 4.86 nM.

B3: CA8 humanised J8M1 (antibody, human IgG1, kappa, V domains shown)
VH: B1 VH with A97T
VL: B1 VL
notes: Humanised CA8, heavy chain J8 with light chain M1, human IgG1 kappa; also called CA8 J8M1
Turning to B3, the Kd in assay [1] stood at 1.28 nM; in assay [2] it was 0.05 nM.

B4: CA8 humanised J5M1 (antibody, human IgG1, kappa, V domains shown)
VH: B1 VH with A24G, K74T, A97T
VL: B1 VL
notes: Humanised CA8, heavy chain J5 with light chain M1, human IgG1 kappa; also called CA8 J5M1
Consider B4, for which the Kd in assay [3] is 0.112 nM; in assay [4], 0.145 nM.

B5: CA8 humanised J0M2 (antibody, human IgG1, kappa, V domains shown)
VH: B1 VH with Y27G, T30S, D103N
VL: B1 VL with M4L, K45E, L47V
notes: Humanised CA8, heavy chain J0 with light chain M2, human IgG1 kappa; also called CA8 J0M2
B5: the results for the Kd in assay [3] and in assay [4] were 0.563 nM and 0.31 nM, respectively.

B6: CA8 humanised J7M0 (antibody, human IgG1, kappa, V domains shown)
VH: B1 VH
VL: B1 VL with Y71F
notes: Humanised CA8, heavy chain J7 with light chain M0, human IgG1 kappa; also called CA8 J7M0
Take B6: the Kd is 1.14 nM in assay [1] and 0.064 nM in assay [2].

B7: S307118G03 humanised H3L0 (antibody, human IgG1, kappa, V domains shown)
VH: B2 VH
VL: B1 VL with D28G, N53S, Y71F, R92S
notes: Humanised, human IgG1 kappa
As for B7, the binding result in assay [3] is given as “no binding”. Moreover, the Kd in assay [4] was found to be 5.31 nM.

B8: CA8 humanised J5M2 (antibody, human IgG1, kappa, V domains shown)
VH: B1 VH with A24G, K74T, A97T
VL: B1 VL with M4L, K45E, L47V
notes: Humanised CA8, heavy chain J5 with light chain M2, human IgG1 kappa; also called CA8 J5M2
With B8, the Kd in assay [3] stood at 0.109 nM; in assay [4], 0.12 nM.

B9: CA8 humanised J2M2 (antibody, human IgG1, kappa, V domains shown)
VH: B1 VH with A97T, D103N
VL: B1 VL with M4L, K45E, L47V
notes: Humanised CA8, heavy chain J2 with light chain M2, human IgG1 kappa; also called CA8 J2M2
Take B9: the Kd worked out at 0.106 nM in assay [3] and 0.482 nM in assay [4].

B10: CA8 humanised J1M1 (antibody, human IgG1, kappa, V domains shown)
VH: B1 VH with D103N
VL: B1 VL
notes: Humanised CA8, heavy chain J1 with light chain M1, human IgG1 kappa; also called CA8 J1M1
As for B10, the Kd came out at 0.442 nM in assay [3] and 1.51 nM in assay [4].

B11: S307118G03 H5L0 (antibody, human IgG1, kappa, V domains shown)
VH: B2 VH with V103D
VL: B1 VL with D28G, N53S, Y71F, R92S
notes: Humanised, human IgG1 kappa; also called S307118G03 humanised H5L0
Take B11: the binding result in assay [5] was “no binding”.

B12: CA8 humanised J4M0 (antibody, human IgG1, kappa, V domains shown)
VH: B1 VH with A24G, M48I, V68A, I70L, K74T, A97T, D103N
VL: B1 VL with Y71F
notes: Humanised CA8, heavy chain J4 with light chain M0, human IgG1 kappa; also called CA8 J4M0
As for B12, the Kd worked out at 0.866 nM in assay [3] and 0.906 nM in assay [4].

B13: CA8 humanised J9M2 (antibody, human IgG1, kappa, V domains shown)
VH: B1 VH with A24G, M48I, V68A, I70L, K74T, A97T
VL: B1 VL with M4L, K45E, L47V
notes: Humanised CA8, heavy chain J9 with light chain M2, human IgG1 kappa; also called CA8 J9M2
With B13, the Kd in assay [1] was found to be 0.515 nM.

B14: CA8 humanised J0M1 (antibody, human IgG1, kappa, V domains shown)
VH: B1 VH with Y27G, T30S, D103N
VL: B1 VL
notes: Humanised CA8, heavy chain J0 with light chain M1, human IgG1 kappa; also called CA8 J0M1
For B14, the Kd in assay [3] is 0.503 nM; in assay [4] it was 0.373 nM.

B15: CA8 humanised J3M0 (antibody, human IgG1, kappa, V domains shown)
VH: B1 VH with A24G, K74T, A97T, D103N
VL: B1 VL with Y71F
notes: Humanised CA8, heavy chain J3 with light chain M0, human IgG1 kappa; also called CA8 J3M0
Take B15: the Kd in assay [3] turned out to be 0.526 nM; in assay [4], 1.37 nM.

B16: CA8 humanised J4M2 (antibody, human IgG1, kappa, V domains shown)
VH: B1 VH with A24G, M48I, V68A, I70L, K74T, A97T, D103N
VL: B1 VL with M4L, K45E, L47V
notes: Humanised CA8, heavy chain J4 with light chain M2, human IgG1 kappa; also called CA8 J4M2
Regarding B16, the Kd in assay [3] is 0.179 nM; in assay [4], 0.281 nM.

B17: CA8 humanised J4M1 (antibody, human IgG1, kappa, V domains shown)
VH: B1 VH with A24G, M48I, V68A, I70L, K74T, A97T, D103N
VL: B1 VL
notes: Humanised CA8, heavy chain J4 with light chain M1, human IgG1 kappa; also called CA8 J4M1
With B17, the Kd amounted to 0.203 nM in assay [3] and 0.278 nM in assay [4].

B18: CA8 humanised J0M0 (antibody, human IgG1, kappa, V domains shown)
VH: B1 VH with Y27G, T30S, D103N
VL: B1 VL with Y71F
notes: Humanised CA8, heavy chain J0 with light chain M0, human IgG1 kappa; also called CA8 J0M0
As to B18, the Kd was 0.648 nM in assay [3] and 0.435 nM in assay [4].

B19: S307118G03 humanised H4L1 (antibody, human IgG1, kappa, V domains shown)
VH: B2 VH with I48M, A68V, L70I, V72A, N98D
VL: B1 VL with D28G, N53S, R92S
notes: Humanised, human IgG1 kappa
Turning to B19, the binding result in assay [3] was “no binding”; in assay [4], “no binding (tested: up to 256 nM)”.

B20: CA8 humanised J5M0 (antibody, human IgG1, kappa, V domains shown)
VH: B1 VH with A24G, K74T, A97T
VL: B1 VL with Y71F
notes: Humanised CA8, heavy chain J5 with light chain M0, human IgG1 kappa; also called CA8 J5M0
In the case of B20, the Kd is 0.025 nM in assay [3] and 0.087 nM in assay [4].

B21: CA8 humanised J3M1 (antibody, human IgG1, kappa, V domains shown)
VH: B1 VH with A24G, K74T, A97T, D103N
VL: B1 VL
notes: Humanised CA8, heavy chain J3 with light chain M1, human IgG1 kappa; also called CA8 J3M1
Consider B21, for which the results for the Kd in assay [3] and in assay [4] were 0.196 nM and 0.438 nM, respectively.

B22: CA8 humanised J8M2 (antibody, human IgG1, kappa, V domains shown)
VH: B1 VH with A97T
VL: B1 VL with M4L, K45E, L47V
notes: Humanised CA8, heavy chain J8 with light chain M2, human IgG1 kappa; also called CA8 J8M2
Regarding B22, the Kd came to 1.32 nM in assay [1] and 0.057 nM in assay [2].

B23: CA8 humanised J7M2 (antibody, human IgG1, kappa, V domains shown)
VH: B1 VH
VL: B1 VL with M4L, K45E, L47V
notes: Humanised CA8, heavy chain J7 with light chain M2, human IgG1 kappa; also called CA8 J7M2
Regarding B23, the Kd is 1.29 nM in assay [1] and 0.057 nM in assay [2].

B24: CA8 humanised J8M0 (antibody, human IgG1, kappa, V domains shown)
VH: B1 VH with A97T
VL: B1 VL with Y71F
notes: Humanised CA8, heavy chain J8 with light chain M0, human IgG1 kappa; also called CA8 J8M0
For the molecule B24, the equilibrium dissociation constant (Kd) in assay [1] turned out to be 1.08 nM; in assay [2] it was 0.052 nM.

B25: CA8 humanised J2M1 (antibody, human IgG1, kappa, V domains shown)
VH: B1 VH with A97T, D103N
VL: B1 VL
notes: Humanised CA8, heavy chain J2 with light chain M1, human IgG1 kappa; also called CA8 J2M1
With B25, the Kd in assay [3] is 0.218 nM; in assay [4], 0.842 nM.

B26: CA8 humanised J1M2 (antibody, human IgG1, kappa, V domains shown)
VH: B1 VH with D103N
VL: B1 VL with M4L, K45E, L47V
notes: Humanised CA8, heavy chain J1 with light chain M2, human IgG1 kappa; also called CA8 J1M2
As for B26, the Kd in assay [3] is 0.303 nM; in assay [4] it was 1.14 nM.

B27: S307118G03 humanised H2L1 (antibody, human IgG1, kappa, V domains shown)
VH: B2 VH with I48M, A68V, L70I, V72A
VL: B1 VL with D28G, N53S, R92S
notes: Humanised, human IgG1 kappa
With B27, the binding result in assay [3] was “no binding”. The Kd in assay [4] amounted to 6.37 nM.

B28: CA8 humanised J2M0 (antibody, human IgG1, kappa, V domains shown)
VH: B1 VH with A97T, D103N
VL: B1 VL with Y71F
notes: Humanised CA8, heavy chain J2 with light chain M0, human IgG1 kappa; also called CA8 J2M0
For the molecule B28, the Kd in assay [3] amounted to 0.538 nM; in assay [4] it was 1.94 nM.

B29: CA8 humanised J1M0 (antibody, human IgG1, kappa, V domains shown)
VH: B1 VH with D103N
VL: B1 VL with Y71F
notes: Humanised CA8, heavy chain J1 with light chain M0, human IgG1 kappa; also called CA8 J1M0
Take B29: the Kd in assay [3] amounted to 0.849 nM; in assay [4], 2.82 nM.

B30: CA8 humanised J3M2 (antibody, human IgG1, kappa, V domains shown)
VH: B1 VH with A24G, K74T, A97T, D103N
VL: B1 VL with M4L, K45E, L47V
notes: Humanised CA8, heavy chain J3 with light chain M2, human IgG1 kappa; also called CA8 J3M2
Turning to B30, the Kd in assay [3] is 0.159 nM; in assay [4], 0.362 nM.

B31: S307118G03 humanised H2L0 (antibody, human IgG1, kappa, V domains shown)
VH: B2 VH with I48M, A68V, L70I, V72A
VL: B1 VL with D28G, N53S, Y71F, R92S
notes: Humanised, human IgG1 kappa
Take B31: the binding result in assay [3] is “no binding”. In assay [4], the dissociation constant Kd amounted to 6.36 nM.
